Data reported in publication PMC10450741.

Target: biotinylated γTuRC-mBFP-AviTag (human | human (endogenous in HeLa-Kyoto)) (UniProt Q9BSJ2)
Assay: TIRF microscopy; γTuRC nucleation assay: biotinylated γTuRC-mBFP-AviTag held on the glass by NeutrAvidin (1-2.5 nM used), 11-15 µM tubulin, 1 mM GTP, 1 mM ATP, with or without mScarlet-KIF2A (20-100 nM), mCherry-MCAK or spastin (100 nM); 33°C, 20-30 min

Sequence of microtubules polymerised from pig brain tubulin (P02550 whole entry): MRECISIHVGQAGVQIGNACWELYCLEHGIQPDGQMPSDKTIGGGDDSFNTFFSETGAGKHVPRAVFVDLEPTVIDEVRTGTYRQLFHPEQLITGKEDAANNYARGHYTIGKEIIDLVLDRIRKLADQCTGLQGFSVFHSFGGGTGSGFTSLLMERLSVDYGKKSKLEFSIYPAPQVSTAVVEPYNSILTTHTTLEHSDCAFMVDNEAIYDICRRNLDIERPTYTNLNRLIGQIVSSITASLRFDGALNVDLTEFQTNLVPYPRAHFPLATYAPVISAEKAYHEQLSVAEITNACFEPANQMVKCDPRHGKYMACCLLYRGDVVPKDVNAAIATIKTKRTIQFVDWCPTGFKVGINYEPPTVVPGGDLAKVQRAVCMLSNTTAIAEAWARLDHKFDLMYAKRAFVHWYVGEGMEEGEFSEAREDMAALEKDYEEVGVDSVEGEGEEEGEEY
Sequence of microtubules polymerised from pig brain tubulin (Q767L7 whole entry): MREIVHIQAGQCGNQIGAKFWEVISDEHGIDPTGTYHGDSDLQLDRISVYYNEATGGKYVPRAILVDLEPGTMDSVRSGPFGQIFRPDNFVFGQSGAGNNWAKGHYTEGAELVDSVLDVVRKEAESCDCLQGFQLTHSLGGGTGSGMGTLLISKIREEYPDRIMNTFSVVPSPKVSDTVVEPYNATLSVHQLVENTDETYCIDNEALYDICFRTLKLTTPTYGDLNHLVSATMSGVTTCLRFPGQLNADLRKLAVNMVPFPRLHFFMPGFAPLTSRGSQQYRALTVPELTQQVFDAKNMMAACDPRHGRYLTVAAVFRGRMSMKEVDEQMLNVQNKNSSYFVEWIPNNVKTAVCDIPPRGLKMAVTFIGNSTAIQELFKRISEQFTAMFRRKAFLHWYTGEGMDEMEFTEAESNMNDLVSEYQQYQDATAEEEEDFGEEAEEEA
Sequence of biotinylated γTuRC-mBFP-AviTag (human | human (endogenous in HeLa-Kyoto)) (Q9BSJ2 whole entry, looked up): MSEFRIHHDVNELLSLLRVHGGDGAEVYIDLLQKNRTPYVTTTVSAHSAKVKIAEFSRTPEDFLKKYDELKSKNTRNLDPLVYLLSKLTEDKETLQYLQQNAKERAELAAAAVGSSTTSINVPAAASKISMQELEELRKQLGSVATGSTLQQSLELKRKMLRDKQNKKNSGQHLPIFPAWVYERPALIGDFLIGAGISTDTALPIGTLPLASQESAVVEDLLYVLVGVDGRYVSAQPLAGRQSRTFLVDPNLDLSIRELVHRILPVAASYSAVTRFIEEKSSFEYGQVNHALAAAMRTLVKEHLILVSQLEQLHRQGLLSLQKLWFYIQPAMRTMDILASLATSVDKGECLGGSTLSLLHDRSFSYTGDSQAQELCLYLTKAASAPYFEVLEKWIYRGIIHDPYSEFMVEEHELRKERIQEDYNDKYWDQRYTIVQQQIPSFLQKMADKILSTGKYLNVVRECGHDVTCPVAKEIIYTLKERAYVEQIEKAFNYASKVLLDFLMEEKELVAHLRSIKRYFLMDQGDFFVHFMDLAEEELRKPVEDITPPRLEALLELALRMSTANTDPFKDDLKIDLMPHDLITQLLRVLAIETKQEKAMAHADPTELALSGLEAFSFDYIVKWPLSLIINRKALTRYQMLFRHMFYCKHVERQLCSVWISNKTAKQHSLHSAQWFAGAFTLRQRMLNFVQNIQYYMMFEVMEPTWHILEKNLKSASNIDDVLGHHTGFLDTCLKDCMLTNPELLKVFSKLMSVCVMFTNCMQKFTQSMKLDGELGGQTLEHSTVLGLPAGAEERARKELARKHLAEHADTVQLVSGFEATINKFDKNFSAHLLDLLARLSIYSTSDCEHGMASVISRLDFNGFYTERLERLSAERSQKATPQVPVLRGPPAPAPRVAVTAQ

Work on “microtubules polymerised from pig brain tubulin (from UniProt P02550 1-451; Q767L7 1-444) (complex)” yielded a percent of microtubules released from immobilized γTuRC (with 20 nM mScarlet-KIF2A alone) of 2%, a percent of microtubules released from immobilized γTuRC (with 100 nM spastin alone) of 1% and a percent of microtubules released from immobilized γTuRC (with 100 nM spastin and 20 nM mScarlet-KIF2A) of 40%.
